In general, Km refers to the concentration of substrate that gives half-maximal velocity.

The values that follow come from US6576753B1, “DNA encoding human leukotriene C4 synthase” (The Brigham and Women's Hospital, Inc., priority 1994, dated 2003).

Where a chain is given by its changes, count along the chain named. Read-outs that look alike come from different tables or passages of the source.

Data set [1] deals with T1, LTC4 synthase (Homo sapiens, UniProt Q16873).
T1 construct: expressed in transfected cells; host or cells: COS-7 cells (pcDNA3 clone from KG-1 library), cell lysate
T1 sequence (Q16873 1-150): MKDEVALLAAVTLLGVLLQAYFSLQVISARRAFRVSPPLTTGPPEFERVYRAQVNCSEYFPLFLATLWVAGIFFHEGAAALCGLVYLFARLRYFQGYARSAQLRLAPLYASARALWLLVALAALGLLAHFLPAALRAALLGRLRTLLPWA
Put plainly: Dose-response assay using MK886: conversion of LTA4-ME to LTC4-ME by lysates of transfected COS-7 cells. The format is biochemical. As for the experimental part: After 2.8 min more, solvent B was increased linearly to 90% over 2 min and was maintained at this level for an additional 10 min. UV absorbance at 280 nm and the UV spectra were recorded simultaneously. The retention times for PGB2 and LTC4-ME were 8.5 and 10.1 min, respectively.
DOSE-RESPONSE ASSAY USING MK886: Cell lysates of the COS-7 cell transfectant containing SEQ ID NO.:1 were incubated with 20 micromolar LTA4-ME, 20 mM GSH, 5 mM MgCl2 in HEPES buffer (pH 7.6), in the presence of 0-10 micromolar MK886 for 10 minutes at room temperature. Reactions were stopped by addition of 2 volumes of methanol containing 200 ng PGB2. Samples were analyzed by RP-HPLC.

Data set [2] addresses T2, LTC4 synthase (Homo sapiens, UniProt Q16873, Y93F).
T2 construct: made in house; host or cells: COS-7 cells
T2 sequence (Q16873 1-150 Y93F): T1 sequence (Q16873 1-150) with Y93F
Nature of the data set: Enzyme kinetics of purified recombinant wild-type or mutant LTC4 synthase. Type of data set: biochemical. The procedure:
(§1) PURIFICATION AND KINETIC ANALYSIS OF SELECTED EXPRESSED PROTEINS: Recombinant LTC4 synthases were purified by S-hexyl GSH agarose affinity chromatography (Lam et al., Eur. J. Biochem., 238:606, 1996). Solubilized microsomes were loaded onto a 2.5-cm×1.5-cm open bed of S-hexyl GSH resin equilibrated with 50 mM HEPES, 1 mM EDTA, 5 mM β-mercaptoethanol, 0.1% Triton X-102, 10% glycerol, pH 7.6 (Buffer A) at 4° C. The column was washed sequentially with 5 volumes each of buffer A/0.3 M NaCl/20 mM GSH/0.1% DOC, buffer A/2.5 mM S-hexyl GSH/2.5 mM S-octyl GSH/0.1% DOC, and buffer A/0.1% DOC; and the enzyme was eluted with 5 fractions of 1 volume each of 15 mM probenecid in buffer A containing 0.1% DOC. The enzyme was purified nearly to homogeneity as determined by the presence in silver stained SDS-PAGE gels of a predominant 18-kDa protein band with a minor 34-kDa band; only the 18-kDa band interacted with anti-LTC4 synthase antibody on immunoblot analysis. After sequential concentration and dilution with a Microsep 10K centrifugal concentrator (Filtron Technology Corp., Northborough, Mass.) to remove probenecid, the protein concentration was estimated by staining a SDS-PAGE gel of the purified enzyme and a standard amount of lysozyme resolved in the same gel with Coomassie blue dye and comparing their intensities.
(§2) To examine the enzyme kinetics of recombinant wild-type or mutant LTC4 synthase, 3-100 ng portions of purified enzyme were incubated in 200 μl of HEPES buffer, pH 7.6, containing 10 mM MgC'2 with either 20 μM LTA4-ME and various concentration of GSH or with 10 mM GSH and various concentrations of LTA4-ME for 2 min at room temperature. The reactions were terminated by the addition of 3 vol of methanol containing 200 ng PGB2. Samples were then analyzed for LTC4-ME by RP-HPLC.

In data set [3] the test system is LTC4 synthase. The description is as above. The format is biochemical, human. The note with it: purified recombinant enzyme. The procedure: as §1, §2
Data set [4] concerns the target T2, LTC4 synthase. Nature of the data set: Effect of pH on enzymatic conjugation by wild-type and mutant enzyme. Type of data set: biochemical. The note with it: microsomal assay, 5-fold more Y93F. The procedure:
The study the effect of pH on enzymatic conjugation by wild-type and mutant enzyme, 1-μl or 5-μl (Y93F) samples of solubilized COS cell microsomes were incubated with 10 μM LTA4-ME and 10 mM GSH in bis-Tris propane buffer containing 10 mM MgCl2 at various pH levels. The reactions were carried out at room temperature for 2 min and were stopped by the addition of 3 vol of methanol and 10 μl of acetic acid. Product generation was quantitated by RP-HPLC as described above.

Data set [5] relates to LTC4 synthase. Put plainly: Conjugation of LTA4-ME with GSH by solubilized microsomes of COS cells transfected with wild-type or mutant LTC4 synthase. The note with it: for Function / Km: COS cell microsome; for conjugation function of transfected COS cell microsomes: compared to wild-type construct.
Method: OF THE EXPRESSED PROTEINS: COS-7 cells were transfected with either wild-type LTC4 synthase cDNA or the mutated LTC4 synthase cDNA by DEAE-dextran transfection (Lam et al., Proc. Natl. Acad. Sci. USA., 91:7663, 1994). Three days after transfection, the cells were harvested by treatment with trypsin and suspended in microsomal buffer (50 mM HEPES buffer pH 7.9 containing 2 mM EDTA and 10 mM β-mercaptoethanol) at a concentration of 5×10^6 cells/ml. The cells were lysed by sonication with a Branson microtip sonicator (Danbury, Conn.) at a setting of 7. Cell lysates were centrifuged at 100,000×g for 60 min at 4° C., and the pellets (microsomes) were resuspended in microsomal buffer and were solubilized by the addition of 0.4% Triton X-102, 0.4% sodium deoxycholate (DOC), and 10% glycerol and stirring at 4° C. for 45 min.
The function of each mutant enzyme as well as the wild-type enzyme was first screened by the incubation of 1-10 μl of solubilized COS cell microsomes with 10 mM GSH and 20 μM LTA4-ME in 200 μl 50 mM HEPES buffer containing 10 mM MgCl2, pH 7.6. The reactions were carried out at room temperature for 10 min and stopped by the addition of 3 vol methanol containing 200 ng prostaglandin B2 (PGB2) as an internal standard. LTC4-ME levels in the samples were determined with high performance liquid chromatography (HPLC).
Reverse phase (RP)-HPLC was carried out with a model 126 dual pump system and model 167 scanning UV detector (Beckman Instruments) controlled by an Gateway 2000 P4D66 computer equipped with Beckman System Gold software. Samples were applied to a 5-μm 4.6×250-mm C18 Ultrasphere reverse phase column (Beckman Instruments) equilibrated with a solvent of methanol/acetonitrile/water/acetic acid (10:15:100:0.2, v/v), pH 6.0 (solvent A). Immediately after the sample was injected, the column was eluted at a flow rate of 1 ml/min with a programmed concave gradient (System Cold curve 6) to 20% solvent A and 80% solvent B (pure methanol) over 0.2 min with continuation isocratically for 5.8 min. Beginning at 6 min, solvent B was increased linearly to 100% over 0.2 min and was maintained at this level for 7 min more. The ultraviolet absorbance at 280 nm and the ultraviolet spectra were recorded simultaneously. The retention times for PGB2 and LTC4-ME were 7.4 and 8.9 min, respectively. LTC4-ME was quantitated by calculating the ratio of the peak area to the area of the internal standard PGB2.
For data set [6], the target named is T1, LTC4 synthase. The note with it: high doses; Lam et al.; cited from earlier work.
Data set [7] is described as follows: Binding of mutant protein to S-hexyl GSH agarose column. Conditions: eluted with probenecid. The procedure: as §1

Regarding `C[C@H](C#Cc1ccc(Oc2ccc(F)cc2)o1)N(O)C(N)=O` [A79175], the “effect on LTC4 synthase activity in COS cell lysates” value on LTC4 synthase [1] (at a concentration of 10 μM) was “did not affect LTC4 synthase activity”.

Take Y93F: LTC4 synthase point mutant: the “reduction in Vmax” value with LTC4 synthase [2] (isolated recombinant enzyme, versus wild type) is listed as “greater than 90%”. In addition, the “catalytic efficiency relative to wild-type enzyme” value in the data set with LTC4 synthase [2] (purified recombinant enzyme) is recorded as 1/260. Besides, the “Vmax LTC4-ME” value in the data set on LTC4 synthase [3] stood at 1.4 µmol/min/mg. In addition, the Km turned out to be 9.9 mM in the data set with LTC4 synthase [3] (read-out: Km GSH), 0.0054 mM in the data set with LTC4 synthase [3] (read-out: Km LTA4-ME), 10 mM in the data set on LTC4 synthase [5] (read-out: Km GSH) and 0.02 mM with LTC4 synthase [5] (read-out: Km LTA4-ME). For the same molecule, the “pH optimum of conjugation” value with LTC4 synthase [4] is “A shift in the optimum to a higher pH”. Also, in the data set on LTC4 synthase [5], the Function was 5 % of WT. In addition, the “conjugation function of transfected COS cell microsomes” value (from here on “conjugation function”) in the data set with LTC4 synthase [5] is “associated with a reduction in function”.

Consider `CC(C)c1ccc2c(c1)c(SC(C)(C)C)c(CC(C)(C)C(=O)O)n2Cc1ccc(Cl)cc1` [MK-886], for which the IC50 was below 3 µM on LTC4 synthase [1] (20 μM LTA4-ME, COS cell lysates, read-out: IC50, inhibition of conversion of LTA4-ME to LTC4-ME) and around 3 µM at LTC4 synthase [1] (transfected COS cell lysates, read-out: ID50, inhibition of LTC4 synthase activity). The “inhibition of enzyme activity” value at LTC4 synthase [1] (at 10 μM) is reported as “more than 90%”. Also, the “inhibition of LTC4 synthase activity” value on LTC4 synthase [6] is listed as “could also inhibit LTC4 synthase activity when administered at high doses”.

As for R51T: LTC4 synthase point mutant, the “Vmax LTC4-ME” value in the data set with LTC4 synthase [3] is given as “Inactive”. Further, the “binding to S-hexyl GSH agarose column” value in data set [7] is recorded as “bound to S-hexyl GSH”. In the data set with LTC4 synthase [5], the Function is 0 % of WT and the “conjugation function” value is reported as “do not show conjugation activity”. The “conjugation function” value in the data set with LTC4 synthase [5] (listed as Arg 51 to threonine) was “abolished the functional activity”.
